Test results from paper PMC5653232.

Target: H3K9Cme3-NCP (fluorescein-labelled DNA, unlabelled wild type H2A) (human) (UniProt P0C0S8)
Assay: fluorescence polarisation

CHD3 PHD1/2 (373–508), sequence (Q12873 373-508): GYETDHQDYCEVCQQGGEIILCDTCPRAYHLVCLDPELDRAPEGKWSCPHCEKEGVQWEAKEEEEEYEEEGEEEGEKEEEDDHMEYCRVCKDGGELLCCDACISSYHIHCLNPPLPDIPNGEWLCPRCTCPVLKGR

**Q.** How did the Kd turn out when “CHD3 PHD1/2 (373–508) (from UniProt Q12873 373-508) (domain or fragment)” was run?
**A.** The Kd was 1400 nM.
